Measurements taken from patent US20240190985A1 (NEW YORK UNIVERSITY, published 2024).

T1: recombinant CD99 extracellular domain (fusion partner not given) (human, UniProt P14209 23-122)
T1 construct: also called CD99 ECD; human CD99; not shown: N-terminal 6xHis tag, AviTag, TEV site and a fusion partner (SUMO or GFP)
T1 sequence: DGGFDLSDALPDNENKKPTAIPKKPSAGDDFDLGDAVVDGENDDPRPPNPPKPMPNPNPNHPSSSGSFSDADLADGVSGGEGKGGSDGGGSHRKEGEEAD

T2: CD99 endogenously expressed on cells (Jurkat, KOPT-K1) (human, UniProt P14209 23-185, O-linked glycosylation (natural, on cells))
T2 construct: also called endogenously expressed CD99; CD99 on cells
T2 sequence: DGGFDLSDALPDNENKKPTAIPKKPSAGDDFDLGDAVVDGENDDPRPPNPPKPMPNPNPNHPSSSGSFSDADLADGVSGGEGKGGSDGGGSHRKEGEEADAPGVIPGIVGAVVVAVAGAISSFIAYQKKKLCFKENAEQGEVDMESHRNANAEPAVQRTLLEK

T3: CD99L2 extracellular domain (human, UniProt Q8TCZ2 26-185)
T3 construct: extracellular domain
T3 sequence (looked up): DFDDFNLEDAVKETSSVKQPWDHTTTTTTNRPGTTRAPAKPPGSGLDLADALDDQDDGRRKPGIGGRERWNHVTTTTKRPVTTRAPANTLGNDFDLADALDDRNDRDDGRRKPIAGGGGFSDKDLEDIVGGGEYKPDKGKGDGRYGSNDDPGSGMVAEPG

T4: Glycoprotein Xg extracellular domain (human, UniProt P55808 22-142)
T4 construct: extracellular domain
T4 sequence (looked up): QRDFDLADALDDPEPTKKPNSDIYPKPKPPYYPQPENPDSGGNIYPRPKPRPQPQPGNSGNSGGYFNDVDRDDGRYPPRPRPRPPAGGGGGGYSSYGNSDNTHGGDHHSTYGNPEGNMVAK

T5: mouse CD99 (mouse, UniProt Q8VCN6 29-137, limits assumed)
T5 sequence (looked up): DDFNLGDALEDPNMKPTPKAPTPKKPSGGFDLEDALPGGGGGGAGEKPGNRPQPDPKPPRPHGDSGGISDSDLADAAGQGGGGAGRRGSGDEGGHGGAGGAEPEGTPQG

B1: clone 30 in the scFv-Fc format (Fc fusion)
chain: EVQLLETGGGLVQPGGSLRLSCAASGFTFSSSAMHWVRQAPGKGLEWVAAISYDGSDTYYADSVKGRFTISRDNAKNTLYLQMNSLRDEDTAVYYCARDQVLGSGSLDYWGQGTLVTVSSGILGSGGGGSGGGGSGGGGSNFMLTQPHSVSESPGKTVTISCTRSSGSIGSYYVQWYQQRPGSPPTTVIYEDDKRPSGVPDRFSGSIDSSSNSASLTISGLKTEDEADYYCQSYDSSHVVFGGGTKLTVLSGSSSSLEGCKPCICTVPEVSSVFIFPPKPKDVLTITLTPKVTCVVVDISKDDPEVQFSWFVDDVEVHTAQTQPREEQFNSTFRSVSELPIMHQDWLNGKEFKCRVNSAAFPAPIEKTISKTKGRPKAPQVYTIPPPKEQMAKDKVSLTCMITDFFPEDITVEWQWNGQPAENYKNTQPIMDTDGSYFVYSKLNVQKSNWEAGNTFTCSVLHEGLHNHHTEKSLSHSPGKGGGGLNDIFEAQKIEWHESRHHHHHH
notes: The format mimics the bivalent IgG architecture
B2: clone 22 in the scFv-Fc format (Fc fusion)
chain: QVQLQQSGPGLVKPSQTLSLTCAISGDSVSSNSAAWNWIRQSPSRGLEWLGRTYYRSKWYNDYAVSVKSRITINPDTSKNQFSLQLNSVTPEDTAVYYCARGSYGSGLVWGQGTTVTVSSGSASAPTGILGSGGGGSGGGGSGGGGSNFMLTQPHSVSESPGKTVTISCTGSSGSIASNYVQWYQQRPGSAPTTVIYEDDQRPSGVPDRFSGSLDTSSNSASLTISGLRPEDEADYYCQSYDNKDNVVFGGGTKVTVLSGSSSSLEGCKPCICTVPEVSSVFIFPPKPKDVLTITLTPKVTCVVVDISKDDPEVQFSWFVDDVEVHTAQTQPREEQFNSTFRSVSELPIMHQDWLNGKEFKCRVNSAAFPAPIEKTISKTKGRPKAPQVYTIPPPKEQMAKDKVSLTCMITDFFPEDITVEWQWNGQPAENYKNTQPIMDTDGSYFVYSKLNVQKSNWEAGNTFTCSVLHEGLHNHHTEKSLSHSPGKGGGGLNDIFEAQKIEWHESRHHHHHH
notes: as for B1
B3: clone 10 in the scFv-Fc format (Fc fusion)
chain: QVQLQQSGPVLVKPSQTLSLTCAISGDSVSSDTTAWSWIRQSPSRGLEWLGWTYYRSKWFNYYAVSVKSRVTINPDTSKNQFSLQLSSVTPEDTAVYYCARGNGNGGMDVWGQGTTVTVSSGILGSGGGGSGGGGSGGGGSSYVLTQPPSVSVSPGQTARITCSGDALPKQYAYWYQQKPGQAPVLVIFKDSERPSGIPERFSGSSSGTTVTLTISGVQAEDEADYYCQSADNSGFYQVFGGGTQLTVLSGSSSSLEGCKPCICTVPEVSSVFIFPPKPKDVLTITLTPKVTCVVVDISKDDPEVQFSWFVDDVEVHTAQTQPREEQFNSTFRSVSELPIMHQDWLNGKEFKCRVNSAAFPAPIEKTISKTKGRPKAPQVYTIPPPKEQMAKDKVSLTCMITDFFPEDITVEWQWNGQPAENYKNTQPIMDTDGSYFVYSKLNVQKSNWEAGNTFTCSVLHEGLHNHHTEKSLSHSPGKGGGGLNDIFEAQKIEWHESRHHHHHH
notes: also called Clone 10 scFv-Fc antibody
B4: 10A1 with light chain D50 mutated to serine (yeast display format) (scFv, V domains shown)
VH: QVQLQQSGPVLVKPSQTLSLTCAISGDSISSDTTAWSWIRRSPSRGLEWLGWTYYRSKWFNYYAVSVKGRVTINPDTSKNQFSLQLSSVTPEDTAVYYCARGNGNGGMDVWGQGTTVTVSS
VL: SYVLTQPASASVSPGQTARITCSGDALPKQYAYWYQQKPGQAPVLVIFKSSERPSGVPERFSGSSSGTTVTLTISGAQAEDEADYYCQSVDNSGFYQVFGGGTQLTVL
notes: also called D50L to serine
B5: 10A1 with light chain D91 mutated to serine (yeast display format) (scFv, V domains shown)
VH: QVQLQQSGPVLVKPSQTLSLTCAISGDSISSDTTAWSWIRRSPSRGLEWLGWTYYRSKWFNYYAVSVKGRVTINPDTSKNQFSLQLSSVTPEDTAVYYCARGNGNGGMDVWGQGTTVTVSS
VL: SYVLTQPASASVSPGQTARITCSGDALPKQYAYWYQQKPGQAPVLVIFKDSERPSGVPERFSGSSSGTTVTLTISGAQAEDEADYYCQSVSNSGFYQVFGGGTQLTVL
notes: also called D91L to serine
B6: 10A1 IgG-RGY (antibody)
heavy: QVQLQQSGPVLVKPSQTLSLTCAISGDSISSDTTAWSWIRRSPSRGLEWLGWTYYRSKWFNYYAVSVKGRVTINPDTSKNQFSLQLSSVTPEDTAVYYCARGNGNGGMDVWGQGTTVTVSSASTKGPSVFPLAPSSKSTSGGTAALGCLVKDYFPEPVTVSWNSGALTSGVHTFPAVLQSSGLYSLSSVVTVPSSSLGTQTYICNVNHKPSNTKVDKKVEPKSCDKTHTCPPCPAPEAAGGPSVFLFPPKPKDTLMISRTPEVTCVVVDVSHEDPEVKFNWYVDGVEVHNAKTKPREEQYNSTYRVVSVLTVLHQDWLNGKEYKCKVSNKALGAPIEKTISKAKGQPRRPQVYTLPPSREEMTKNQVSLTCLVKGFYPSDIAVEWESNGQPENNYKTTPPVLDSDGSFFLYSKLTVDKSRWQQGNVFSCSVMHGALHNHYTQKYLSLSPGK
light: SYVLTQPASASVSPGQTARITCSGDALPKQYAYWYQQKPGQAPVLVIFKDSERPSGVPERFSGSSSGTTVTLTISGAQAEDEADYYCQSVDNSGFYQVFGGGTQLTVLRTVAAPSVFIFPPSDEQLKSGTASVVCLLNNFYPREAKVQWKVDNALQSGNSQESVTEQDSKDSTYSLSSTLTLSKADYEKHKVYACEVTHQGLSSPVTKSFNRGEC
B7: 10A1 in the scFv-Fc format (Fc fusion)
chain: QVQLQQSGPVLVKPSQTLSLTCAISGDSISSDTTAWSWIRRSPSRGLEWLGWTYYRSKWFNYYAVSVKGRVTINPDTSKNQFSLQLSSVTPEDTAVYYCARGNGNGGMDVWGQGTTVTVSSGILSGSSSSGSSSSGSSSSGYVLTQPASASVSPGQTARITCSGDALPKQYAYWYQQKPGQAPVLVIFKDSERPSGVPERFSGSSSGTTVTLTISGAQAEDEADYYCQSVDNSGFYQVFGGGTQLTVLSGSSSSLEGCKPCICTVPEVSSVFIFPPKPKDVLTITLTPKVTCVVVDISKDDPEVQFSWFVDDVEVHTAQTQPREEQFNSTFRSVSELPIMHQDWLNGKEFKCRVNSAAFPAPIEKTISKTKGRPKAPQVYTIPPPKEQMAKDKVSLTCMITDFFPEDITVEWQWNGQPAENYKNTQPIMDTDGSYFVYSKLNVQKSNWEAGNTFTCSVLHEGLHNHHTEKSLSHSPGKGGGGLNDIFEAQKIEWHESRHHHHHH
notes: Bivalent; also called 10A1 scFv-Fc

Legend:
[1] = target: T1, recombinant CD99 extracellular domain …; assay: Western blot of recombinant CD99
Protocol: SDS-PAGE of 50 ng of each purified protein was performed followed by transfer to Immobilon-P^SQ PVDF membrane (ca #ISEQ00010, Millipore). For Western blot detection, the membranes were blocked with 5% skim milk overnight at 4° C., then washed three times with 1×TBST (50 mM Tris pH 7.5, 150 mM NaCl, and 0.05% Tween-20). […] Signal detection was analyzed on ChemiDoc Touch imaging system (Biorad).
To test this hypothesis, Western blots of recombinant CD99 was performed with the antibodies. […] To further delineate the epitopes, truncated forms of the CD99 ECD were produced, and antibody binding was tested by Western blotting.

[2] = target: T2, CD99 endogenously expressed on cells …; assay: flow cytometry on Jurkat cells (FIG. 1E)
Protocol: The cells were washed three times, and resuspended in 100 μL of PBS/2% FBS and analyzed on a HyperCyt screener (Satorius). […] Gating for flow cytometry consisted of FSC vs SSC cell gating, followed by single cell gating in FSC-H or FSC-A vs FSC-W to remove aggregates. For all samples cells were gated for Propidium Iodide negative. […] Data collection performed on ZE5 Cell Analyzer (BioRad) or Guava easyCyte (Luminex) flow cytometers. Signals reported are median fluorescence intensities.
To assess if the antibodies bind to CD99 with posttranslational modifications, their binding to CD99 on cells was tested.

[3] = target: T3, CD99L2 extracellular domain; assay: binding of scFv-Fc to immobilized homolog ECDs (FIG. 1B)
[4] = target: T4, Glycoprotein Xg extracellular domain; assay: as above
mouse CD99 = target: T5, mouse CD99; assay: binding of scFv-Fc to CD99 from different species (FIG. 1C)
[5] = target: T6, SAV-CD99 complex (biotinylated CD99 ECD tetramerized on streptavidin) (human, UniProt P22629 37-163 (Streptomyces avidinii entry), limits assumed, DyLight650 label; biotin on the AviTag); assay: yeast display binding signal (FIG. 5E)
T6 construct: also called tetramerized CD99; tetramerized SUMO-CD99; not shown: N-terminal 6xHis tag, AviTag, TEV site and fusion partner

[6] = target: T2, CD99 endogenously expressed on cells …; assay: cell-based or functional assay
[7] = target: T2, CD99 endogenously expressed on cells …; assay: flow cytometry titration on Jurkat cells (FIG. 1G)
Protocol: The cells were washed three times, and resuspended in 100 μL of PBS/2% FBS and analyzed on a HyperCyt screener (Satorius). […] Gating for flow cytometry consisted of FSC vs SSC cell gating, followed by single cell gating in FSC-H or FSC-A vs FSC-W to remove aggregates. For all samples cells were gated for Propidium Iodide negative. T-ALL patient samples cells were then gated for human CD45 positive followed by CD34 negative, and finally CD7 positive. For healthy donor PBMC samples cells were gated for human CD45 positive followed by CD34 positive and CD34 negative. Data collection performed on ZE5 Cell Analyzer (BioRad) or Guava easyCyte (Luminex) flow cytometers. Signals reported are median fluorescence intensities.

T6 sequence (P22629 37-163 limits assumed, one chain of several): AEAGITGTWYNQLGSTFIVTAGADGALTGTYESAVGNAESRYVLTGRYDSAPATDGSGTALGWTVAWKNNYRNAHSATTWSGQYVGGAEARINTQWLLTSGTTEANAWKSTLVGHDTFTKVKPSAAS

Row | Binder | binding result [1] | binding result [3] | binding result [4] | other results
1 | B1 | binds | no binding (tested: 600 nM Fv) | no binding (tested: 600 nM Fv) | binding result [2]: binds; binding result (mouse CD99): no binding (tested: 1 µM Fv)
2 | B2 | binds | no binding (tested: 600 nM Fv) | no binding (tested: 600 nM Fv) | binding result [2]: binds; binding result (mouse CD99): no binding (tested: 1 µM Fv)
3 | B3 | binds | no binding (tested: 600 nM Fv) | no binding (tested: 600 nM Fv) | –
4 | B4 | – | – | – | binding result [5]: no binding (tested: 100 nM SAV-CD99 complex)
5 | B5 | – | – | – | binding result [5]: no binding (tested: 100 nM SAV-CD99 complex)
6 | B6 | – | – | – | IC50 of cytotoxicity (Annexin V, KOPT-K1 cells, 18 hours) [6]: 442 nM Fv
7 | B7 | – | – | – | fold improvement of apparent KD over Clone 10 [7]: 14 fold
